This note sets out measurements from paper PMC6616311, “Reconstitution of Microtubule Nucleation In Vitro Reveals Novel Roles for Mzt1” (Current Biology, 2019).

First the molecules themselves.
B4: Alp4 (untagged) (natural protein, S. pombe, UniProt Q9Y705 1-784, looked up)
chain: MVRSISSVLAKEESENGSPIPALEEGSVYHVSLKSEGVSPFSDRIQLNYLYDGKTFSDPSNLNIHQQEACLINELLNAFMGMEGVFVHLQDMKASSEFETIIMPPSFYILPGFDLGIKDIASEMLEMGSHYLSITAFIESRSHFEYGFVNHALCAALRKFVMDYVVLIMQCENQSRIDPNFSLQTLRLYTLPTSRSLRQVYLILRDLLLSMEKNASSSDDLGLSNIDDLLEQLNEGNDISHVVNATRSKKKVCKGGQVISFLTESLTKYAGDPVARKILTYLLREASRPYTKMLNEWIHLGLVNDPYDEFMIKIHKGITSMQLDEDYTDEYWEKRYVIREDQVPPQLLDLQNKVLFAGKYLNVVLECRKGVNNLASLNAKDDTQNQLLWPSTFDDDNFTLNIMNAYVYANESLLQLLQSSQSLYAHLYSLKHYFFLDQSDFFTTFLDNAQHELRKPAKYISITKLQSQLDLALRQPGTITATDPHKEYVTVEVNQTSLIDWLMHIVSISGLEEGTSSQGNEVWNESITKQADVGNETRNFESEHNRSTQGTSKVGSDKDINGFETMQLCYKVPFPLSLILSRKAIIRYQLLFRYFLLLRHVEMQLENSWVQHSKNSAWRLNSSNAKIEQWKRNSWLLRTRMLSFVQKIIYYTTSEVIETHWGKFMGELENARTVDNLMQEHIDFLDTCLKECMLTNSRLLKVQSKLLNTCAMFASYTSTFTRSLYLLENSEESFDEGRMDKMEEILRRYEDSFSRHLKSLVNACNYFASTETAALLSLVMKLTG
notes: Alp4, S. pombe γ-TuSC protein, homolog of human GCP2; also called homolog of human GCP2; source: High Five insect cells (MultiBac baculovirus), coexpressed with partners; in lysate, and co-purified in complexes

For data set [1], the target named is T1, Alp6-MBP (S. pombe, UniProt Q9USQ2 1-832).
T1 construct: Alp6, S. pombe γ-TuSC protein, homolog of human GCP3; also called Alp6 (homolog of human GCP3) with C-terminal MBP-6xHis tag; tagged subunit of γ-TuSC^Alp6-MBP; source: High Five insect cells (MultiBac baculovirus), coexpressed with partners; in lysate, and purified on amylose; not shown: MBP, C-terminal, kept; 6xHis, C-terminal, kept
T1 sequence (looked up): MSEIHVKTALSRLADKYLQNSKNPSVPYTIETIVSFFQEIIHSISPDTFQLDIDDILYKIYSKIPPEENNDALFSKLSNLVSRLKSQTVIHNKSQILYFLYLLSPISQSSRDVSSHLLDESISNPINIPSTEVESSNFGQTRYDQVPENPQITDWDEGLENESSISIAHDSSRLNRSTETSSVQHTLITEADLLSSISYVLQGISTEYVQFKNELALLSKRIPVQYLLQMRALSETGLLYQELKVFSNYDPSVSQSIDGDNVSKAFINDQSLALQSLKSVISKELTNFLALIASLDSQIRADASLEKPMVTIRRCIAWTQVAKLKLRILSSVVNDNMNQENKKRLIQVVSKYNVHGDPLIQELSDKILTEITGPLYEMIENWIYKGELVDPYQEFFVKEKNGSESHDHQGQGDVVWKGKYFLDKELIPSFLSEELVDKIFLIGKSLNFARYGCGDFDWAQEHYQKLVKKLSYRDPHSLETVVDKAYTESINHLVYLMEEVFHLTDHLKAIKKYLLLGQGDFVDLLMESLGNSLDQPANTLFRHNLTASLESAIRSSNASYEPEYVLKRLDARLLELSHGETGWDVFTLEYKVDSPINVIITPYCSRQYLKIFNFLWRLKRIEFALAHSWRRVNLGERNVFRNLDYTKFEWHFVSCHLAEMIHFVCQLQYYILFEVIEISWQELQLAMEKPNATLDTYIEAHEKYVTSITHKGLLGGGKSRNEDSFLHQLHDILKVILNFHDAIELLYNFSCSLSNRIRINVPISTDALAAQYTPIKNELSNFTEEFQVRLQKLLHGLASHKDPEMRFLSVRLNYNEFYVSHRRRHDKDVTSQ
The experiment in a line: pull-down; amylose resin purification via Alp6-MBP from lysates of High Five cells coexpressing Alp6-MBP, Alp4 and Gtb1, with or without Mzt1-6xHis; HB100 buffer (40 mM K-HEPES, 100 mM KCl, 1 mM EGTA, 1 mM MgCl2, 0.1 mM GTP, 1 mM DTT pH 7.5), overnight 4°C, maltose elution, SDS-PAGE. The note with it: partners not purified.

The target in data set [2] is B4. The experiment in a line: cross-linking; cross-linking mass spectrometry of purified MGM holocomplex (from coexpression) with EDC/Sulfo-NHS, 1:2:4.4 (w/w/w), 90 min, 18°C, 40 mM K-HEPES, 300 mM NaCl, 1 mM MgCl2 pH 7.5. The note with it: both partners purified.
Data set [3] deals with T1, Alp6-MBP. The description is as above. The note with it: both partners purified.
Data set [4] deals with the molecule itself. Description: glycerol density-gradient centrifugation; 10-30% glycerol density gradient in HB100, 55,000 rpm, 4°C, 45 or 80 min; one affinity-purified complex alone, 100 μL at 1 mg/mL; S values against marker proteins.
Data set [5] deals with the molecule itself. The experiment in a line: SEC-MALS; 100 μL of 1.98 mg/mL Mzt1 on Superdex-75 10/300 GL in 100 mM Tris, 50 mM NaCl, pH 7.5, 22°C. (In general: In gel filtration, larger molecules generally elute earlier.)

B1: γ-tubulin (Gtb1), untagged (natural protein, S. pombe, UniProt P25295 1-446, looked up)
chain: MGREIITLQAGQCGNQIGSQFWQQLCLEHGIGPDGTLESFATEGVDRKDVFFYQSDDTRYIPRAILIDLEPRVVNNILSDTYGSLYNPENILITKNGGGAGNNWANGYSHAERIFEDIMDMIDREADGSDSLEGFSLLHSIAGGTGSGLGSFLLERLNDRYPKKIIQTYSVFPNSQSVSDVVVQPYNSLLALKRLTLNADSVVVLDNAALAHIAADRLHTQNPTFHQQNQLVSTVMSASTTTLRYPGYMNNDLVSIIASLIPSPRCHFLLTSYTPFTNQQVEEAKAIRKTTVLDVMRRLLLPKNQMVSVNPSKKSCFISILDIIQGEADPADVHKSLLRIRERRYASFIPWGPASIQVALSKKSPYIKTNHRVSGLMLANHTSIASLFKRTLDQYDRLRKRNAFLEQYKKEAIFEDDLNEFDSSRDVVADLINEYEACEDPNYLSL
notes: γ-tubulin Gtb1 of S. pombe; source: High Five insect cells (MultiBac baculovirus), coexpressed with partners; in lysate, and co-purified in complexes
Take B1: in data set [1], the binding result is on record as “binds”.

B2: 6xHis-Mto1[bonsai] (domain or fragment, S. pombe, UniProt O94488 131-549, looked up)
chain: TTDDEQLSPVLTANQGFQSQEQYEEDSYNNYDYTSDPSSPNYISSSLDQLPHLDDEDDLQLTPIKEERNYLHSQDAPTTNALSKKISDILIPASAMKDLKDRKNALAKEFEESQPGSSLTLKEQANVIDNLRKEVFGLKLKCYFLYDQLNKFHDQEVQDIMKQNIDLKTLTMELQRAVAGYEKKISGLESRIKPDQSFNLSTPSPAPSNLITLQSRYSQALSELETTKRAFAALRKEKSKKTNYSVGAYNEDRNVLSNMLDNERREKEALLQELESLRVQLSKKVPMPAKNTDERVIETLQRSNELLRMDISMQNEALLLRKQENDRLVKQVEELTVALNSGKMNAIVEAESSKNELWDSMMVSRMKTQEQSIELTRLYKQLQDIEEDYENKLMRMEQQWREDVDQLQEYVEEITQELQ
notes: Mto1 of S. pombe (CM1-domain protein), amino acids 131-549; lacks residues 1-130 and 550-1,115; also called Mto1(131-549); source: High Five insect cells (MultiBac baculovirus), coexpressed with Mto2; in lysate, and co-purified in complexes; not shown: 6xHis, N-terminal, kept
As to B2, the binding result in data set [2] and in data set [3] was “binds” throughout.

B3: Mto1/2[bonsai] complex (complex, S. pombe)
chain 1: TTDDEQLSPVLTANQGFQSQEQYEEDSYNNYDYTSDPSSPNYISSSLDQLPHLDDEDDLQLTPIKEERNYLHSQDAPTTNALSKKISDILIPASAMKDLKDRKNALAKEFEESQPGSSLTLKEQANVIDNLRKEVFGLKLKCYFLYDQLNKFHDQEVQDIMKQNIDLKTLTMELQRAVAGYEKKISGLESRIKPDQSFNLSTPSPAPSNLITLQSRYSQALSELETTKRAFAALRKEKSKKTNYSVGAYNEDRNVLSNMLDNERREKEALLQELESLRVQLSKKVPMPAKNTDERVIETLQRSNELLRMDISMQNEALLLRKQENDRLVKQVEELTVALNSGKMNAIVEAESSKNELWDSMMVSRMKTQEQSIELTRLYKQLQDIEEDYENKLMRMEQQWREDVDQLQEYVEEITQELQ
chain 2: MSEHNYQSDREVAEDPFLNYEASANQLSSNSRESTPRGSPWRAGMRSASLMTEPLEDSMYSDNNYLDNGVSFTKDENPLYSPSWPSLADANVNSMKSNNAIQEHKAAKFVSEKSLEKVSTADNNLVLQELENLRERLNQVELQLSERPSSYLGYHNNLSPYRSPNSYPSLLPSTHSPHSPAPLSTMQTALMRLRTYHPSPIILKPVEQAVNHAITLVNTSPSSVVDALCRSLAELCLGLVQEAIDASILSQQESSNSLDLVRHTPPLNYTSSVDSSPQRMASDSYGRPSLHLNDPFPSVDLQSNELSHHNVRTTLFSDDSRFHSKIHTHSTPPSQMYSAASHFRYRSDPSTRHVSNSTNKSSLHPSPTSLRVAHPIIPQRASPASQSFPSLQDTPSP
notes: Mto1 of S. pombe, amino acids 131-549 (Mto1[bonsai]); as m7; Mto2 of S. pombe; as m8; Copy numbers of the two chains in the complex are not measured here; also called 6xHis-Mto1/2[bonsai]; source: High Five insect cells (MultiBac baculovirus); coexpressed in lysate, or purified (ammonium sulfate, Ni2+ Fractogel, Superose 6); not shown: 6xHis, N-terminal, kept
With B3, the binding result in data set [4] is given as “binds”.
For B4, in data set [1], the binding result is “binds”.

B5: Mzt1-6xHis (natural protein, S. pombe, UniProt P0CF96 1-64, looked up)
chain: MSESTKETIEVLYEIGTLLGTELDKTTLSLCISLCENNVHPEAIAQIIREIRMAQEQTVDTEPS
notes: Mzt1 of S. pombe; also called MOZART1 homolog; source: High Five insect cells (MultiBac baculovirus); coexpressed in lysate, co-purified in complexes, or purified alone (Ni2+ IMAC, Superdex 75); not shown: 6xHis, C-terminal, kept
As usually defined, the stoichiometry N is the number of molecules, sites or subunits per partner or assembly. As for B5, the “stoichiometry N” value in data set [5] was determined as 2.
